According to patent publication US20020102268A1:

Biological target: uncleaved bovine spleen PARP (poly(ADP-ribose) polymerase) (UniProt P18493)
Sequence of UniProt P18493 (P18493 2-1016): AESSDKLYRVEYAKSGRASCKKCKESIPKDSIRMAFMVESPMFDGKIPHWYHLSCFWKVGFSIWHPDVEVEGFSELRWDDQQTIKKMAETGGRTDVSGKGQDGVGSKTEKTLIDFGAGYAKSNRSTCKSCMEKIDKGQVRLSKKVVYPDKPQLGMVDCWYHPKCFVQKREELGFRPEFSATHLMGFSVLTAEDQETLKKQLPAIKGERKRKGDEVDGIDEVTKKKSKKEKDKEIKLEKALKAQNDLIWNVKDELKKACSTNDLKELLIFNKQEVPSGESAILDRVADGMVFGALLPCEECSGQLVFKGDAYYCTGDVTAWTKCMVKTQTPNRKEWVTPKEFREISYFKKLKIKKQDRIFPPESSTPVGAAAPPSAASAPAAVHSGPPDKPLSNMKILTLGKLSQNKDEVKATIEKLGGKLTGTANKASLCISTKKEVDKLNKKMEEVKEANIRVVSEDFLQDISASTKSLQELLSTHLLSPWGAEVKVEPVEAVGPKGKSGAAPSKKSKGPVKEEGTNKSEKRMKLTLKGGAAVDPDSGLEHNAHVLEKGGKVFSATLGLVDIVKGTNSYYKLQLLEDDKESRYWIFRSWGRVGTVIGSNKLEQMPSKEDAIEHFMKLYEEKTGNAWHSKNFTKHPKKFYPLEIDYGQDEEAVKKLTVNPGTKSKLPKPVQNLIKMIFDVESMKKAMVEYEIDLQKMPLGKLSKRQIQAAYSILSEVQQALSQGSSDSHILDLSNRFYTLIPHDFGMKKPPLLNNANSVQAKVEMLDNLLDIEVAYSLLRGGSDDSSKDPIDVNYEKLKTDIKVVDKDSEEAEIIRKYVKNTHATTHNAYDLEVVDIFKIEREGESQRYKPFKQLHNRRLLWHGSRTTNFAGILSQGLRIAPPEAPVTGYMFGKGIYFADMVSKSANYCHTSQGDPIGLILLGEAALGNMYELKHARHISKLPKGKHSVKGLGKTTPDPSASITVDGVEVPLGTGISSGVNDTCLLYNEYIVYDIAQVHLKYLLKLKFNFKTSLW

## recombinant CPP32 (caspase 3)
  cleavage of PARP, seen on Western blot: two bands corresponding to uncleaved and cleaved PARP were visualized in the cleaved sample
